Measurements taken from publication PMC4459711.
Like-named read-outs stand apart in the source and are kept apart here.

Experiments:
Test in all cases: X-ray crystallography
[1] = biological target: T1, L1750 (LACV L protein, residues 1-1750) (La Crosse virus (strain …, UniProt A5HC98 1-1750))
[2] = biological target: T1, L1750 (LACV L protein, residues 1-1750); remark: listed apart in the source
[3] = biological target: T1, L1750 (LACV L protein, residues 1-1750); remark: listed apart in the source

T1 sequence (A5HC98 1-1750): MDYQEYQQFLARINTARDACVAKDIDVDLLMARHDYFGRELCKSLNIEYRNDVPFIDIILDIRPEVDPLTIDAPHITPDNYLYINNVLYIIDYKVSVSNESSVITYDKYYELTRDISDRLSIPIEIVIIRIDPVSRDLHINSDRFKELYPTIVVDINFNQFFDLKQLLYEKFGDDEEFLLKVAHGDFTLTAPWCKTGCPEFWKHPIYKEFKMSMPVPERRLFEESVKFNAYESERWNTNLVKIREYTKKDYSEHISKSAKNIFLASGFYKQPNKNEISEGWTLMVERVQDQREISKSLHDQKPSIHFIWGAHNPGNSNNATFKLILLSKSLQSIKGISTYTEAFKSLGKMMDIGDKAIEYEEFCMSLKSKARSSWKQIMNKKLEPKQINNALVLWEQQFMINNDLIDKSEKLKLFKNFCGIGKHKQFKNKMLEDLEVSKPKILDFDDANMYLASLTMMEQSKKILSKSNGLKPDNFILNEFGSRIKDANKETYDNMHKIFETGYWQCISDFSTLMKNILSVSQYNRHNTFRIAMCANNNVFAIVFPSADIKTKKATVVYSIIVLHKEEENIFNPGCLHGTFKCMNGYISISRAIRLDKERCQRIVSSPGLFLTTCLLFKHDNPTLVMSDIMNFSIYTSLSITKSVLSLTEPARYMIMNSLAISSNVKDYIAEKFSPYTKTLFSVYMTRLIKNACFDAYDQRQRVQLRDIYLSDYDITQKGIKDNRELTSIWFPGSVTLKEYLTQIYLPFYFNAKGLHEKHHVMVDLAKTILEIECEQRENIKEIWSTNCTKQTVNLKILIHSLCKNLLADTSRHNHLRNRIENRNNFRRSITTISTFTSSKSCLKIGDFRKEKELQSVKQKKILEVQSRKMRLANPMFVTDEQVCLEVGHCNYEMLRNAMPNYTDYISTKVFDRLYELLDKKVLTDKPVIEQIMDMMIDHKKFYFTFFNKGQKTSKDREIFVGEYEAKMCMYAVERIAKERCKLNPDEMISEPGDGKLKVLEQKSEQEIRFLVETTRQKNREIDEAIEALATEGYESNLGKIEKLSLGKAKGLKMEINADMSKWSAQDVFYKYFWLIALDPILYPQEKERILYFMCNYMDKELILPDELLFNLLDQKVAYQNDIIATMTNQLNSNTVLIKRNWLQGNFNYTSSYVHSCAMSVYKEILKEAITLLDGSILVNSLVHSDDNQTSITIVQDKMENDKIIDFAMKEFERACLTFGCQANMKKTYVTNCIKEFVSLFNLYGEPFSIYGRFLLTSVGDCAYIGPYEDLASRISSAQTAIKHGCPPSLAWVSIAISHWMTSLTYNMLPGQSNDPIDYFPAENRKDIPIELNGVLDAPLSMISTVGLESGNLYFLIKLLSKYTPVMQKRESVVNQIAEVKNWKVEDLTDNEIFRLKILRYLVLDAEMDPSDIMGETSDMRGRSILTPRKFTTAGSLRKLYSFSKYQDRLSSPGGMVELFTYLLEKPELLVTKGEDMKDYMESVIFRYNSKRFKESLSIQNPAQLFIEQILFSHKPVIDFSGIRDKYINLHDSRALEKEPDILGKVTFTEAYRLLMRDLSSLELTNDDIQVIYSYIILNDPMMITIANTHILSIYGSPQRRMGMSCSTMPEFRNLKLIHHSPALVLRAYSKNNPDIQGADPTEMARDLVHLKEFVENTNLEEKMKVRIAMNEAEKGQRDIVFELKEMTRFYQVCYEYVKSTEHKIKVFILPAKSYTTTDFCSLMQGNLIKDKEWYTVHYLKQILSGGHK

B1: 3' vRNA 1-16 / 5' vRNA 9-16 partial duplex (mixed)
RNA 1: UUGGUAGUACACUACU
RNA 2: GCUACCAA
B1: binds [1].

B2: 5' vRNA 1-10 (hook) (structured_RNA)
RNA: AGUAGUGUGC
modifications: 5' phosphate
B2: binds [2].

B3: 5' vRNA 1-11 (structured_RNA)
RNA: AGUAGUGUGCU
B3: binds [3].
